Assay results published in patent publication US20040072188A1 (Biogen, published 2004).

How the values were obtained:
[1] = molecular target: T1, human TACI, full length, on transfected 293EBNA cells (CA336) (human, UniProt O14836 1-293); assay: FACS on 293EBNA cells co-transfected with human TACI and GFP, 1 ug/ml myc-APRIL
T1 construct: whole, on cells; also called huTACI
T1 sequence (looked up): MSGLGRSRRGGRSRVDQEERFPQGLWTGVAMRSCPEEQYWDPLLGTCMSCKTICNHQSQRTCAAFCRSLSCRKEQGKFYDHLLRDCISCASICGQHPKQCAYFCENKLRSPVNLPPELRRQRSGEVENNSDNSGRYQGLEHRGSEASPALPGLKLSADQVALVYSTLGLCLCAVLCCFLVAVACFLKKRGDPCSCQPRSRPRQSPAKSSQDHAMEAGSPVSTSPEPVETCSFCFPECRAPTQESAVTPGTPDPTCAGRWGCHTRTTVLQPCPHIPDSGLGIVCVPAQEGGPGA
Excerpt: (§1) At 18-20 hr post-transfection, cells were detached, counted, and stained for FACS analysis similar to Example 5 with the following modifications. […] The cells were again washed, fixed with paraformaldehyde, and analyzed by FACS for GFP and PE positive cells.

[2] = molecular target: T2, human BAFF-R (JST576), full length, on cells (human, UniProt Q96RJ3 1-184); assay: FACS on 293EBNA cells co-transfected with pJST576 and GFP reporter; anti-murine APRIL mAb, biotinylated anti-rat IgG2b, SAV-PE
T2 construct: also called pJST576 transfected cells; huBAFF-R
T2 sequence: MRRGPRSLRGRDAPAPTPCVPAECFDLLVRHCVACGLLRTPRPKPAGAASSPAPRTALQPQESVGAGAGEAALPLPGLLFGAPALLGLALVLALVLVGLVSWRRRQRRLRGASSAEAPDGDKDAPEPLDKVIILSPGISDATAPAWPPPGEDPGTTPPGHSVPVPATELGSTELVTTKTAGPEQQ
Excerpt: as §1

B1: murine recombinant soluble myc-APRIL (ligand, UniProt Q9D777 96-241, looked up)
chain: AVLTQKHKKKHSVLHLVPVNITSKADSDVTEVMWQPVLRRGRGLEAQGDIVRVWDTGIYLLYSQVLFHDVTFTMGQVVSREGQGRRETLFRCIRSMPSDPDRAYNSCYSAGVFHLHQGDIITVKIPRANAKLSLSPHGTFLGFVKL
notes: also called myc-muAPRIL; murine myc-APRIL; not shown: myc tag
Does B1 bind [1]?
Result: binds

Does B1 bind [2]?
Result: no binding (tested: 1 ug/ml)
